Like-named read-outs stand apart in the source and are kept apart here.
Tests used:
[1] = target: cynomolgus adenosine A2A receptor (A2aR) (cynomolgus); test: flow cytometry on PBMC, donor Cynomolgus 2
[2] = target: cynomolgus adenosine A2A receptor (A2aR) (cynomolgus); test: flow cytometry on PBMC, donor Cynomolgus 1
[3] = target: T1, human adenosine A2A receptor (A2aR) (human, UniProt P29274 1-412); test: flow cytometry, HEK293-hA2aR cells, supernatant 1 ug/ml
T1 construct: Assays used HEK293 cells stably overexpressing human A2aR (BPS Bioscience 79381), human A2aR-expressing CHO cells, or endogenous A2aR on human PBMC; also called human A2aR; hA2aR
T1 sequence (P29274 whole entry): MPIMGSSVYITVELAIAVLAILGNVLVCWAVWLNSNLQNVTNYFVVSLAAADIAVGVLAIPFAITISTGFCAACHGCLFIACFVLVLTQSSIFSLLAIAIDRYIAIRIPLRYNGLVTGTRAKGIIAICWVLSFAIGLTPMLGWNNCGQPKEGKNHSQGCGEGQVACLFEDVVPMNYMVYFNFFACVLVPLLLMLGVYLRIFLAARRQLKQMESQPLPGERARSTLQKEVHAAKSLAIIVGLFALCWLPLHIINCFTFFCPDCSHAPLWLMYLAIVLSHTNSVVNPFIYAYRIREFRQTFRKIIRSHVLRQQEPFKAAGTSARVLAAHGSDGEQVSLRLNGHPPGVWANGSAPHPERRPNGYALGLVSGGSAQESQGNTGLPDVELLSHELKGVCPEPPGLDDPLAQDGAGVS

[4] = target: T1, human adenosine A2A receptor (A2aR); test: flow cytometry titration, HEK293-hA2aR cells, purified antibody
[5] = target: T1, human adenosine A2A receptor (A2aR); test: cell-based or functional assay
[6] = target: T1, human adenosine A2A receptor (A2aR); test: cell-based or functional assay; remark: listed apart in the source
[7] = target: T1, human adenosine A2A receptor (A2aR); test: cell-based or functional assay; remark: listed apart in the source
[8] = target: T1, human adenosine A2A receptor (A2aR); test: flow cytometry, HEK293-hA2aR cells, supernatant 1 ug/ml, average of quadruplicate
[9] = target: T1, human adenosine A2A receptor (A2aR); test: flow cytometry, HEK293-hA2aR cells, supernatant 1 ug/ml, average of triplicate
[10] = target: T1, human adenosine A2A receptor (A2aR); test: flow cytometry on PBMC, donor human 1
[11] = target: T1, human adenosine A2A receptor (A2aR); test: flow cytometry titration, HEK293-hA2aR cells, purified antibody, average of 7 repeats
[12] = target: T1, human adenosine A2A receptor (A2aR); test: flow cytometry on PBMC, donor human 2

Binder	% of A2aR+ CD4+ T cells [1]	% of A2aR+ CD8+ T cells [1]	% of A2aR+ NK cells [1]	% of A2aR+ NKT cells [1]	% of A2aR+ CD4+ T cells [2]	% of A2aR+ CD8+ T cells [2]	% of A2aR+ NK cells [2]	% of A2aR+ NKT cells [2]	EC50 [4]	IC50 of blocking activity, cAMP-Glo, 300 nM NECA, HEK293-hA2aR cells, supernatant (average of triplicate) [7]	MFI [9]	also measured
Hu3F6-H5/Hu3F6-L5 (antibody, human IgG1, V domains shown, Human IgG1 FES (L234F, L235E, P331S) and human Ig kappa constant domains; also called Hu3F6 VH5/VL5; Hu3F6-VH5/VL5) VH: EVQLVQSGAEVKKPGASVKVSCKTSGFAFTSYWMNWVRQAPGQGLEWIGRIDPSDSEAHYAHKFWGRATLTVDKSSSTVYMELSSLRSEDTAVYYCLRSLYGKGDYWGHGTTVTVSS VL: DVVMTQTPLSLSVTPGQPASISCRSSQSLVHRNGNTYLEWYLQKPGQSPQLLIYKVSNRFSGVPDRFSGSGSGTDFTLKISRVEAEDVGVYYCYQGSHVPLTFGGGTKVEIK	10.6%	0.41%	2.92%	4.28%	4.76%	0.15%	5.71%	4.14%	0.59 nM			MFI [3]: 1850 MFI; IC50 of blocking activity, cAMP-Glo, 1.25 uM NECA, HEK293-hA2aR cells, purified antibody [5]: 0.6 nM; IC50 of blocking activity, cAMP-Glo, 5 uM Adenosine, HEK293-hA2aR cells, purified antibody [5]: 0.8 nM; IC50 of blocking activity, cAMP-Glo, 300 nM NECA, HEK293-hA2aR cells, supernatant [6]: 0.9 nM
3F8-12E9 (antibody, from another filing, V domains shown) VH: QVQLQQPGTELVKPGAPVKLSCKASGFTFTRYWMNWVKQRPGRGLEWIGRIDPSDSETHYNHKFWGKATLTVDKSSSTAYIQLNSLTSEDSAVYYCLRSLYGKGDYWGQGTTLTVSS VL: DVLMTQTPLSLSVGLGDQASISCRSSQSIVHSNGNTYLEWYLQRPGQSPKLLIYKVSNRFSGVPDRFSGSGSGTDFTLKISRVEAEDLGVYYCYQGSHVPLTFGSGTKLEIK									0.48 nM	1 nM		MFI [8]: 1920 MFI
1B5-3D7 (antibody, from another filing, V domains shown) VH: QVQLQQPGTELVKPGAPVKLSCKTSGFTFTRFWMNWVRQRPGRGLEWIGRIDPYDSETQYNHKFWDRATLTVDKSSSTVYIQLSSLTSEDSAVYYCGRSLYGKGDYWGQGTTLTVSS VL: DVLMTQSPLSLPVSLGDQASISCRSSQSIVHSNGNTYLEWYLQRPGQSPKLLIYKVSNRFSGVPDRFSGSGSGTYFTLRISRVEAEDLGIYYCFQGSHVPLTFGSGTTLELK											1960 MFI	
3F6-9G5 (antibody, from another filing, V domains shown) VH: QVQLQQPGTELVKPGAPVRLSCKASGFAFTSYWMNWVRQRPGRGLEWIGRIDPSDSEAHYHHKFWGKATLTVDKSSSTVYIQLNGLTSEDSAVYYCLRSLYGKGDYWGHGTTLTVSS VL: DVLMTQTPLSLSVRLGDQASISCRSSQSLVHRNGNTYLEWYLQRPGQSPKLLIYKVSNRFSGVPDRFSGSGSGTDFTLKISRVEAEDLGVYYCYQGSHVPLTFGSGTKLEIK	3.26%	0.14%	2.63%	1.14%	1.36%	0.06%	3.34%	0.85%		1.3 nM	2040 MFI	% of A2aR+ CD4+ T cells [10]: 0.67%; % of A2aR+ CD8+ T cells [10]: 0.06%; % of A2aR+ NK cells [10]: 1.15%; % of A2aR+ NKT cells [10]: 0.62%; EC50 [11]: 0.71 nM; IC50 of blocking activity, cAMP-Glo, 1.25 uM NECA, HEK293-hA2aR cells, purified antibody [7]: 0.53 nM; IC50 of blocking activity, cAMP-Glo, 5 uM Adenosine, HEK293-hA2aR cells, purified antibody [7]: 0.93 nM; % of A2aR+ CD4+ T cells [12]: 0.48%; % of A2aR+ CD8+ T cells [12]: 0.03%; % of A2aR+ NK cells [12]: 0.99%; % of A2aR+ NKT cells [12]: 0.47%

Reference: patent US20250206828A1, “ANTI-ADENOSINE RECEPTOR (A2aR) ANTIBODIES AND THE USE THEREOF” (Adept Therapeutics Inc., priority 2022, published 2025)
